Publication PMC8978962

Target: CitbHLH2-YFPN (citrus)

CitMYB52-YFPC (natural protein)
CitALMT promoter activity (LUC/REN, dual-luciferase assay in tobacco leaves) with the combination of CitMYB52 and CitbHLH2, against the empty vector SK set as 1: 9.8 fold
